For four molecules, IC50 results are on record in US20260374828.

In this assay the target is Keap1 Kelch domain, Q14145. The experiment in a line: other TR-FRET. Conditions: modification not given. For orientation: Time-resolved FRET reads energy transfer from a long-lived donor to a nearby acceptor.
Chain of Keap1 Kelch domain, Q14145 (Q14145 whole entry, the tested form may be a part): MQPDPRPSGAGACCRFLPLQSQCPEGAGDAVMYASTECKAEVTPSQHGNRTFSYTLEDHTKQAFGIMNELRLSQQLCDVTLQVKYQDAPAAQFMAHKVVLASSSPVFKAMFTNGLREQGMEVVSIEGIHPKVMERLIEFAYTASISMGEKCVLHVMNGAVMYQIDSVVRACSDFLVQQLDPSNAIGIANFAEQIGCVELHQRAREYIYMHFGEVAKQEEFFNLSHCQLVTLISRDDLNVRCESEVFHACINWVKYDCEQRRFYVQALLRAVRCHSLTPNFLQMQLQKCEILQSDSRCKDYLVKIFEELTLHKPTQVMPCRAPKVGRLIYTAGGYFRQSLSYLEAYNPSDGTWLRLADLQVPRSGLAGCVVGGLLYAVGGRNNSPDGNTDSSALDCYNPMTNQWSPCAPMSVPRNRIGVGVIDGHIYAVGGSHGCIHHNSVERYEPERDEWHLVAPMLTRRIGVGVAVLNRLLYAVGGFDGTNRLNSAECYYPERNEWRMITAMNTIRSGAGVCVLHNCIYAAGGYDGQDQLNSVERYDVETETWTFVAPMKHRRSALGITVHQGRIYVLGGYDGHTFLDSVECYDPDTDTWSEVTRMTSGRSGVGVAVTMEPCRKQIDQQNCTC

B1: Peptide 1-8 (peptide)
chain: DELEPLTGFRRR
Usually IC50 stands for the concentration at which inhibition is half-maximal. A higher IC50 goes with weaker potency. B1: the concentration for half-maximal inhibition (IC50) is 40.4 nM.

B2: Peptide 1-7 (peptide)
chain: DELEPLTGFRR
B2 returned a half-inhibitory concentration (IC50) of 6.2 nM.

B3: Peptide 1-9 (peptide)
chain: RDELEPLTGFRRR
Consider B3, for which the IC50 was found to be 14.7 nM.

B4: Peptide 1-3 (peptide)
chain: RRDELEPLTGFRR
B4: the IC50 came out at 38.8 nM.
